{
  "source": "paper PMC10397247",
  "binders": {"B1": {"name": "4H575-bA (peptide)", "chain": "DEIAQLKQEIAELEQKNAELKWKNAQLEQ"}, "B2": {"name": "P1-AA-1HAA-A (peptide)", "chain": "DEIAALEAEAAALEAENAALEAEIAALEG"}, "B3": {"name": "P6A-bA (peptide)", "chain": "DKNAQLKQEIAELEQENAELEWKIAQLKQ"}, "B4": {"name": "P1-AA-1HAA-S (peptide)", "chain": "DEIAALEAESAALEAENAALEAEIAALEG"}, "B5": {"name": "4H264-bH (peptide)", "chain": "DEIQELEKKIEELEREIWELEKKNQELKR"}, "B6": {"name": "P7A-bA (peptide)", "chain": "DEIAQLEQKNAELKQEIAELEWKNAQLKQ"}},
  "key": {"4H754-bA": {"target": "T1, 4H754-bA", "T1 chain": "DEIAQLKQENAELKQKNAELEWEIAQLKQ", "assay": "two-hybrid library CCNG1;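 also: natural log of median RNA to DNA barcode read ratio; higher means stronger binding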"}, "4H855-bA": {"target": "T2, 4H855-bA", "T2 chain": "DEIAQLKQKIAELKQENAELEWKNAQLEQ", "assay": "two-hybrid library CCNG1"}, "4H575-bA": {"target": "T3, 4H575-bA", "T3 chain": "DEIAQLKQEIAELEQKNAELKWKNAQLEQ", "assay": "two-hybrid library CCNG1"}, "4H968-bA": {"target": "T4, 4H968-bA", "T4 chain": "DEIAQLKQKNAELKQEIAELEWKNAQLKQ", "assay": "two-hybrid library CCNG1"}, "P7A-bA": {"target": "T5, P7A-bA", "T5 chain": "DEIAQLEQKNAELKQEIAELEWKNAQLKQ", "assay": "two-hybrid library CCNG1"}, "4H683-bA": {"target": "T6, 4H683-bA", "T6 chain": "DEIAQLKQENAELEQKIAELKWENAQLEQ", "assay": "two-hybrid library CCNG1"}, "4H953-bA": {"target": "T7, 4H953-bA", "T7 chain": "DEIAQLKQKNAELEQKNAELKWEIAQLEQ", "assay": "two-hybrid library CCNG1"}, "4H918-bA": {"target": "T8, 4H918-bA", "T8 chain": "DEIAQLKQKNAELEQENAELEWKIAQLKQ", "assay": "two-hybrid library CCNG1"}, "4H780-bA": {"target": "T9, 4H780-bA", "T9 chain": "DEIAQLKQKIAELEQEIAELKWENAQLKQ", "assay": "two-hybrid library CCNG1"}, "4H797-bA": {"target": "T10, 4H797-bA", "T10 chain": "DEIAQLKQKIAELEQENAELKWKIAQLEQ", "assay": "two-hybrid library CCNG1"}, "P2-AA-1HAA-S": {"target": "T11, P2-AA-1HAA-S", "T11 chain": "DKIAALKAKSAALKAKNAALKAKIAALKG", "assay": "two-hybrid library CCmax", "details": "mean of both orientations"}, "P2-AA-1HAA-E": {"target": "T12, P2-AA-1HAA-E", "T12 chain": "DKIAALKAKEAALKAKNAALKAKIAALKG", "assay": "two-hybrid library CCmax", "details": "mean of both orientations"}, "P2-AA-1HAA-V": {"target": "T13, P2-AA-1HAA-V", "T13 chain": "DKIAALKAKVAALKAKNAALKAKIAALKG", "assay": "two-hybrid library CCmax", "details": "mean of both orientations"}, "P2-AA-1HAA-T": {"target": "T14, P2-AA-1HAA-T", "T14 chain": "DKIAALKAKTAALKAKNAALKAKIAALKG", "assay": "two-hybrid library CCmax", "details": "mean of both orientations"}, "P2-AA-1HAA-D": {"target": "T15, P2-AA-1HAA-D", "T15 chain": "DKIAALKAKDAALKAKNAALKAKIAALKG", "assay": "two-hybrid library CCmax", "details": "mean of both orientations"}, "P2-AA": {"target": "T16, P2-AA", "T16 chain": "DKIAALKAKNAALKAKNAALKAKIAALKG", "assay": "two-hybrid library CCmax", "details": "mean of both orientations"}, "P2-AA-1HAA-R": {"target": "T17, P2-AA-1HAA-R", "T17 chain": "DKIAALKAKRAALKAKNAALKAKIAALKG", "assay": "two-hybrid library CCmax", "details": "mean of both orientations"}, "P2-AA-1HAA-I": {"target": "T18, P2-AA-1HAA-I", "T18 chain": "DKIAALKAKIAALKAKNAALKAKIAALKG", "assay": "two-hybrid library CCmax", "details": "mean of both orientations"}, "P8A-bA": {"target": "T19, P8A-bA", "T19 chain": "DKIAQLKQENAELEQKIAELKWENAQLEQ", "assay": "two-hybrid library CCNG1"}, "P9A-bA": {"target": "T20, P9A-bA", "T20 chain": "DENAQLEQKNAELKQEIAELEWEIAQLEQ", "assay": "two-hybrid library CCNG1"}, "4H932-bH": {"target": "T21, 4H932-bH", "T21 chain": "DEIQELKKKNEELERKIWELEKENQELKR", "assay": "two-hybrid library CCNG1"}, "4H3381-bH": {"target": "T22, 4H3381-bH", "T22 chain": "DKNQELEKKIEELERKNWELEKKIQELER", "assay": "two-hybrid library CCNG1"}, "4H796-bH": {"target": "T23, 4H796-bH", "T23 chain": "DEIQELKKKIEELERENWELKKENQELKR", "assay": "two-hybrid library CCNG1"}, "4H264-bH": {"target": "T24, 4H264-bH", "T24 chain": "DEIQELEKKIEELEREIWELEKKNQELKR", "assay": "two-hybrid library CCNG1"}, "4H2760-bH": {"target": "T25, 4H2760-bH", "T25 chain": "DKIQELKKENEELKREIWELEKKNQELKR", "assay": "two-hybrid library CCNG1"}, "4H3010-bA": {"target": "T26, 4H3010-bA", "T26 chain": "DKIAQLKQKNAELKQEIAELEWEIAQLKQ", "assay": "two-hybrid library CCNG1"}, "4H2859-bH": {"target": "T27, 4H2859-bH", "T27 chain": "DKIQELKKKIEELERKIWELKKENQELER", "assay": "two-hybrid library CCNG1"}, "4H730-bH": {"target": "T28, 4H730-bH", "T28 chain": "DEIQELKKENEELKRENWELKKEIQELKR", "assay": "two-hybrid library CCNG1"}, "4H2931-bH": {"target": "T29, 4H2931-bH", "T29 chain": "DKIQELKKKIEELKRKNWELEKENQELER", "assay": "two-hybrid library CCNG1"}, "4H949-bH": {"target": "T30, 4H949-bH", "T30 chain": "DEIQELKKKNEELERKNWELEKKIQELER", "assay": "two-hybrid library CCNG1"}, "4H3297-bH": {"target": "T31, 4H3297-bH", "T31 chain": "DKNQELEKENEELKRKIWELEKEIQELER", "assay": "two-hybrid library CCNG1"}, "4H3041-bH": {"target": "T32, 4H3041-bH", "T32 chain": "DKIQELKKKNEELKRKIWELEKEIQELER", "assay": "two-hybrid library CCNG1"}, "4H349-bH": {"target": "T33, 4H349-bH", "T33 chain": "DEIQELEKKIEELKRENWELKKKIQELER", "assay": "two-hybrid library CCNG1"}, "O8-bA": {"target": "T34, O8-bA", "T34 chain": "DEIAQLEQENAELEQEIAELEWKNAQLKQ", "assay": "two-hybrid library CCNG1"}, "4H56-bH": {"target": "T35, 4H56-bH", "T35 chain": "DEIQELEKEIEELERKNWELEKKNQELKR", "assay": "two-hybrid library CCNG1"}, "4H3364-bH": {"target": "T36, 4H3364-bH", "T36 chain": "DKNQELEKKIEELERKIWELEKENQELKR", "assay": "two-hybrid library CCNG1"}},
  "data": [
    {"binder": "B1", "values": [
      {"measurement": "interaction score", "setting": "4H754-bA", "result": -0.786},
      {"measurement": "interaction score", "setting": "4H855-bA", "result": 1.12},
      {"measurement": "interaction score", "setting": "4H575-bA", "result": -0.354},
      {"measurement": "interaction score", "setting": "4H968-bA", "result": -0.872},
      {"measurement": "interaction score", "setting": "P7A-bA", "result": -1.17},
      {"measurement": "interaction score", "setting": "4H683-bA", "result": -0.37},
      {"measurement": "interaction score", "setting": "4H953-bA", "result": -0.885},
      {"measurement": "interaction score", "setting": "4H918-bA", "result": 0.24},
      {"measurement": "interaction score", "setting": "4H780-bA", "result": -1.33},
      {"measurement": "interaction score", "setting": "4H797-bA", "result": -0.567}
    ]},
    {"binder": "B2", "values": [
      {"measurement": "interaction score", "setting": "P2-AA-1HAA-S", "result": 2},
      {"measurement": "interaction score", "setting": "P2-AA-1HAA-E", "result": 1.86},
      {"measurement": "interaction score", "setting": "P2-AA-1HAA-V", "result": 2.11},
      {"measurement": "interaction score", "setting": "P2-AA-1HAA-T", "result": 1.64},
      {"measurement": "interaction score", "setting": "P2-AA-1HAA-D", "result": 1.87},
      {"measurement": "interaction score", "setting": "P2-AA", "result": 2.29},
      {"measurement": "interaction score", "setting": "P2-AA-1HAA-R", "result": 1.48},
      {"measurement": "interaction score", "setting": "P2-AA-1HAA-I", "result": 2.26}
    ]},
    {"binder": "B3", "values": [
      {"measurement": "interaction score", "setting": "P8A-bA", "result": 0.137},
      {"measurement": "interaction score", "setting": "P7A-bA", "result": 0.285},
      {"measurement": "interaction score", "setting": "P9A-bA", "result": -1.98}
    ]},
    {"binder": "B4", "values": [
      {"measurement": "interaction score", "setting": "P2-AA-1HAA-S", "result": 1.18},
      {"measurement": "interaction score", "setting": "P2-AA-1HAA-E", "result": 1.97},
      {"measurement": "interaction score", "setting": "P2-AA-1HAA-V", "result": 2},
      {"measurement": "interaction score", "setting": "P2-AA-1HAA-T", "result": 1.87},
      {"measurement": "interaction score", "setting": "P2-AA-1HAA-D", "result": 1.28},
      {"measurement": "interaction score", "setting": "P2-AA", "result": 2.06},
      {"measurement": "interaction score", "setting": "P2-AA-1HAA-R", "result": 2.17},
      {"measurement": "interaction score", "setting": "P2-AA-1HAA-I", "result": 2.17}
    ]},
    {"binder": "B5", "values": [
      {"measurement": "interaction score", "setting": "4H932-bH", "result": -0.203},
      {"measurement": "interaction score", "setting": "4H3381-bH", "result": 1.06},
      {"measurement": "interaction score", "setting": "4H796-bH", "result": -0.303},
      {"measurement": "interaction score", "setting": "4H264-bH", "result": 0.678},
      {"measurement": "interaction score", "setting": "4H2760-bH", "result": 0.562},
      {"measurement": "interaction score", "setting": "4H3010-bA", "result": 1.67},
      {"measurement": "interaction score", "setting": "4H2859-bH", "result": 1.8},
      {"measurement": "interaction score", "setting": "4H730-bH", "result": 0.131},
      {"measurement": "interaction score", "setting": "4H2931-bH", "result": 0.678},
      {"measurement": "interaction score", "setting": "4H949-bH", "result": -0.764},
      {"measurement": "interaction score", "setting": "4H3297-bH", "result": 1.11},
      {"measurement": "interaction score", "setting": "4H3041-bH", "result": 1.23},
      {"measurement": "interaction score", "setting": "4H349-bH", "result": 0.113},
      {"measurement": "interaction score", "setting": "O8-bA", "result": 0.091},
      {"measurement": "interaction score", "setting": "4H56-bH", "result": -0.538},
      {"measurement": "interaction score", "setting": "4H3364-bH", "result": 0.996}
    ]},
    {"binder": "B6", "values": [
      {"measurement": "interaction score", "setting": "P8A-bA", "result": 1.79},
      {"measurement": "interaction score", "setting": "P7A-bA", "result": -0.889},
      {"measurement": "interaction score", "setting": "P9A-bA", "result": -0.632}
    ]}
  ]
}
